{"source": "the supplement of paper PMC9732359", "note": "± gives the uncertainty stated by the source."}
{"test": "protein stability index of a GFP-peptide fusion (yeast GPS) (PSI 1-4); higher = more stable; sorted into four equal gates, so the index is relative within each strain", "details": "san1∆", "in_short": "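The protein stability index of a peptide was calculated by multiplying its read frequency in each gate by that gate's number and adding the products. The peptides were tiled 17-residue stretches of yeast proteins, fused downstream of GFP on a Cherry-expressing plasmid and carried in yeast as a pooled library. Mid-log cultures in leucine-free medium were sorted into four equal gates by GFP/Cherry ratio, and each gate's plasmids were PCR-amplified and Illumina-sequenced.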"}
{"sequence": "SYEKNEDHVEDHRKRKK [LIN1]", "protein stability index": "3.38 ± 0.084"}
{"sequence": "SYFLKLLGNCYSLRLIN [SRB8]", "protein stability index": "2.48 ± 0.061"}
{"sequence": "SYFYRRIHVNPSYYGVR [BRR2]", "protein stability index": "1.61 ± 0.07"}
{"sequence": "SYKDSGLWGFSTATRNV [COR1]", "protein stability index": "3.19 ± 0.064"}
{"sequence": "SYKRIYGEYPPTKLLVS [PRE8]", "protein stability index": "2.75 ± 0.1"}
{"sequence": "SYQKLLKNYVLNELHPT [PRP8]", "protein stability index": "1.55 ± 0.057"}
{"sequence": "SYRGVDLEKLLEMSTED [RPS15]", "protein stability index": "2.27 ± 0.2"}
{"sequence": "SYTDAQDKSKKIMNVTT [YMR129W/POM152]", "protein stability index": "2.88 ± 0.056"}
{"sequence": "SYYDNDLDETTQTFNGS [YML031W/NDC1]", "protein stability index": "2.66 ± 0.038"}
{"sequence": "SYYELETIIFDSELNRA [RRI1]", "protein stability index": "2.97 ± 0.056"}
{"sequence": "TAEAPTLSFNFSQKANK [YOR098C/NUP1]", "protein stability index": "3.24 ± 0.056"}
{"sequence": "TAEDSWAVISAFFREKG [RPB2]", "protein stability index": "2.61 ± 0.068"}
{"sequence": "TAFNKTRGPFHFRAPSR [RPL16B]", "protein stability index": "2.59 ± 0.066"}
{"sequence": "TAGAAANALGGLGVNRR [SSN3]", "protein stability index": "3.38 ± 0.089"}
{"sequence": "TAIGIATKEGVVLGVEK [PUP2]", "protein stability index": "2.79 ± 0.16"}
{"sequence": "TAILQRQLQYETLGDIL [ECM29]", "protein stability index": "2.73 ± 0.098"}
{"sequence": "TANATAELNLPTVDEQR [SNF11]", "protein stability index": "2.99 ± 0.043"}
{"sequence": "TANATANVNASAMPAPY [DSN1]", "protein stability index": "3.083 ± 0.029"}
{"sequence": "TAPSSQRRVLLSAPLSK [RPL26A]", "protein stability index": "2.31 ± 0.055"}
{"sequence": "TASFIPLDTIETELPTL [SMC1]", "protein stability index": "2.56 ± 0.066"}
{"sequence": "TASKIIVIDVDYNKKQD [MED1]", "protein stability index": "2.17 ± 0.055"}
{"sequence": "TASSEASAGSKEGASTN [YMR153W/NUP53]", "protein stability index": "3.32 ± 0.16"}
{"sequence": "TASVEKAEFSKEMTLQK [YIL149C/MLP2]", "protein stability index": "3.3 ± 0.14"}
{"sequence": "TATNSKGEQIAIFPYQD [ECM29]", "protein stability index": "3.29 ± 0.12"}
{"sequence": "TAVKQGVTSLGIKATNG [PRE8]", "protein stability index": "1.87 ± 0.072"}
{"sequence": "TAVSFVSAAEDESLIRE [PRP28]", "protein stability index": "3.04 ± 0.16"}
{"sequence": "TCAGGRLFNVVVQDSQT [SMC2]", "protein stability index": "2.39 ± 0.12"}
{"sequence": "TCDEIQNFENDFSLRYI [REC8]", "protein stability index": "3.35 ± 0.15"}
{"sequence": "TDAMTESQPKQTGTRRN [MCD1]", "protein stability index": "3.2 ± 0.068"}
{"sequence": "TDDADDHINWEHIKQDY [NSL1]", "protein stability index": "3.27 ± 0.13"}
{"sequence": "TDGVIGSRTTTNHVLEV [RPO31]", "protein stability index": "3.19 ± 0.13"}
{"sequence": "TDKPFSSTQDVILRKIS [CSI1]", "protein stability index": "2.92 ± 0.071"}
{"sequence": "TDLIREKTMMTFGKPEE [YCS4]", "protein stability index": "3.19 ± 0.041"}
{"sequence": "TDLPIETAAMASLALAH [RPN1]", "protein stability index": "1.58 ± 0.063"}
{"sequence": "TDLSGKETIARVTGGMK [RPS14A]", "protein stability index": "2.79 ± 0.056"}
{"sequence": "TDLTNNSTDGAKITEIG [YIL149C/MLP2]", "protein stability index": "3.07 ± 0.058"}
{"sequence": "TDRESYPRLQDPSRELN [YCS4]", "protein stability index": "3.23 ± 0.034"}
{"sequence": "TDRITRLFIKPGQKMSL [BRN1]", "protein stability index": "2.97 ± 0.14"}
{"sequence": "TDVEKSDPAAKKTATEP [SRP21]", "protein stability index": "3.32 ± 0.046"}
{"sequence": "TEALLLEHDVEYRPFSK [DIS3]", "protein stability index": "3.17 ± 0.08"}
{"sequence": "TEDQKVTTNINWRSFNA [SRP68]", "protein stability index": "3.1 ± 0.058"}
{"sequence": "TEFEFYLLEELESYLIV [SSN8]", "protein stability index": "3.21 ± 0.12"}
{"sequence": "TEKEEAVAKAAEKKVVR [RPL17A]", "protein stability index": "3.24 ± 0.053"}
{"sequence": "TEKLSNGFSFTKFNHNK [YOR098C/NUP1]", "protein stability index": "3.02 ± 0.037"}
{"sequence": "TELLDYATKLSKFTKIP [MED4]", "protein stability index": "2.98 ± 0.16"}
{"sequence": "TELLNIYDSEDPQQVFD [RPN3]", "protein stability index": "3.15 ± 0.084"}
{"sequence": "TEVERAKSLLKLQLGQL [COR1]", "protein stability index": "1.36 ± 0.065"}
{"sequence": "TFANPNRTFTDPPFRIE [TAF14]", "protein stability index": "2.7 ± 0.094"}
{"sequence": "TFDLTPEDAQLLLAANT [RPS0A]", "protein stability index": "2.31 ± 0.088"}
{"sequence": "TFIDKERHQKQLNEKLV [YCS4]", "protein stability index": "2.81 ± 0.078"}
{"sequence": "TFLKYFGWLLSDNSVSV [IRR1]", "protein stability index": "2.24 ± 0.097"}
{"sequence": "TFRRRNPYNTRSNKIKV [RPL34A]", "protein stability index": "1.67 ± 0.066"}
{"sequence": "TFTIKEFVSYYYAHSIP [SNU114]", "protein stability index": "2.25 ± 0.055"}
{"sequence": "TGAYIANRVTDKLTRVH [PRE3]", "protein stability index": "1.59 ± 0.083"}
{"sequence": "TGISQKSMSILNSFVND [HTB1]", "protein stability index": "2.6 ± 0.075"}
{"sequence": "TGSNDRCIGDSDNVSFE [YMR129W/POM152]", "protein stability index": "2.5 ± 0.077"}
{"sequence": "THTEQNNPPKPQKPVPL [SNF2]", "protein stability index": "3.12 ± 0.049"}
{"sequence": "THTNLERDEQKRAEKKA [SNF2]", "protein stability index": "2.77 ± 0.12"}
{"sequence": "TIANSIILHFANFGEIL [YMR153W/NUP53]", "protein stability index": "2.23 ± 0.062"}
{"sequence": "TIDEQSQISPEKQTPNK [RPN1]", "protein stability index": "3.28 ± 0.12"}
{"sequence": "TIEKDKMKIQETISKLN [SMC2]", "protein stability index": "1.94 ± 0.12"}
{"sequence": "TIEQSPRMIELMEFLCV [ECM29]", "protein stability index": "3.11 ± 0.14"}
{"sequence": "TIERSLIEEEVEQDEGQ [YCS4]", "protein stability index": "3.28 ± 0.084"}
{"sequence": "TIKDLVGGKSTVQNEIL [FAS2]", "protein stability index": "2.21 ± 0.1"}
{"sequence": "TISKESTPDQRKRVYNI [ESC2]", "protein stability index": "3.11 ± 0.17"}
{"sequence": "TITIKSYHLWPSFTDEQ [PRP8]", "protein stability index": "2.41 ± 0.073"}
{"sequence": "TKAVEFSMGHIRSSSVS [MED4]", "protein stability index": "3.18 ± 0.078"}
{"sequence": "TKEMDEVEEDDEDDDQP [SWI3]", "protein stability index": "3.48 ± 0.056"}
{"sequence": "TKFNHNKEKSNSPTSFF [YOR098C/NUP1]", "protein stability index": "2.66 ± 0.048"}
{"sequence": "TKFSNPAIPPVIDLEKI [BRR2]", "protein stability index": "2.66 ± 0.063"}
{"sequence": "TKIDMPIKNRKNDTHYL [BRN1]", "protein stability index": "2.93 ± 0.055"}
{"sequence": "TKIKDAEEDSLLSGEDL [YJL039C/NUP192]", "protein stability index": "3.14 ± 0.16"}
{"sequence": "TKKKSKFMTNSTAFVPT [ARP9]", "protein stability index": "2.47 ± 0.058"}
{"sequence": "TKLDQVWGSETVASSKV [RPL4A]", "protein stability index": "2.84 ± 0.05"}
{"sequence": "TKLGFTFTIKEFVSYYY [SNU114]", "protein stability index": "1.73 ± 0.067"}
{"sequence": "TKLIGVLILLHAERDLA [SRP68]", "protein stability index": "2.48 ± 0.088"}
{"sequence": "TKPFENVEKYPTFVEFI [SNU114]", "protein stability index": "2.87 ± 0.11"}
{"sequence": "TKQIQSVRIDGRKVLQK [SIR4]", "protein stability index": "2.03 ± 0.069"}
{"sequence": "TKRQKHFAWLPTHIWNA [POP1]", "protein stability index": "1.55 ± 0.05"}
{"sequence": "TKRVEKPQLKFKSPIDN [RRP6]", "protein stability index": "3.02 ± 0.039"}
{"sequence": "TKSKEQLASQLVDLKKE [RPL35A]", "protein stability index": "3.12 ± 0.098"}
{"sequence": "TKVLNMKPSEILSLIEE [SMC2]", "protein stability index": "3 ± 0.24"}
{"sequence": "TKVNNQLIKVAVHNGGR [RPL9A]", "protein stability index": "1.78 ± 0.086"}
{"sequence": "TLDDLVTKWTNQLTESA [YJL041W/NSP1]", "protein stability index": "2.85 ± 0.076"}
{"sequence": "TLILIQNPENLLSEKIL [SIR3]", "protein stability index": "2.87 ± 0.046"}
{"sequence": "TLKIHLKKFLQEKMDPN [IRR1]", "protein stability index": "3.08 ± 0.084"}
{"sequence": "TLKKNNVAVDIINFGEI [RPN10]", "protein stability index": "3.02 ± 0.1"}
{"sequence": "TLLKNLRKKLNFKLCQA [YJR042W/NUP85]", "protein stability index": "1.13 ± 0.23"}
{"sequence": "TLLPGLQDEVMNIKPVQ [RPS2]", "protein stability index": "1.18 ± 0.26"}
{"sequence": "TLLRLNELLDLTESQTE [RPN5]", "protein stability index": "2.71 ± 0.11"}
{"sequence": "TLLWNKNDKLIKIEDFV [SNF5]", "protein stability index": "1.55 ± 0.095"}
{"sequence": "TLPEKKQFDSIFNSNKA [SIR4]", "protein stability index": "2.82 ± 0.034"}
{"sequence": "TLRCSVVEACGNIVAEL [YCS4]", "protein stability index": "2.17 ± 0.15"}
{"sequence": "TLSNGLIASHYGVSFFT [BRR2]", "protein stability index": "2.39 ± 0.059"}
{"sequence": "TLSTHSTTTSVNGSTTA [SIN4]", "protein stability index": "3.114 ± 0.03"}
{"sequence": "TLVAQNLKQANNVAYGK [SMC4]", "protein stability index": "2.87 ± 0.062"}
{"sequence": "TLVGGGAKITPEMIKRS [RRP43]", "protein stability index": "2.74 ± 0.22"}
{"sequence": "TMLELLNQLDGFETSKN [RPT6]", "protein stability index": "2.63 ± 0.2"}
{"sequence": "TNAGYTIELAGGGYFSA [FAS1]", "protein stability index": "1.72 ± 0.11"}
{"sequence": "TNDGIERYSDKYLKKRK [RPC31]", "protein stability index": "3.43 ± 0.15"}
{"sequence": "TNENGETDDNIETVMTQ [SRB4]", "protein stability index": "2.44 ± 0.089"}
{"sequence": "TNFNEITNTDETITTKR [SWP82]", "protein stability index": "3.08 ± 0.067"}
{"sequence": "TNIRRIIQDNISPRLVV [RRP46]", "protein stability index": "1.75 ± 0.07"}
{"sequence": "TNLYKLKEERAIEPETF [PUP3]", "protein stability index": "3.45 ± 0.066"}
